Data on two molecules can be found in PMC8126939, “The TBC1D31/praja2 complex controls primary ciliogenesis through PKA‐directed OFD1 ubiquitylation” (The EMBO Journal, 2021).

The target of experiment [1] is T1, GST-praja2_(530–570) (human, UniProt O43164 530-570, fluorescent dye on primary amines (NHS-ester labelling)).
T1 construct: praja2 (PJA2), human, residues 530-570; The results call P1-P3 synthetic peptides; the methods describe recombinant GST fusions; also called P1; source: recombinant, purified (GST Trap, Superdex 75 gel filtration)
T1 chain (looked up): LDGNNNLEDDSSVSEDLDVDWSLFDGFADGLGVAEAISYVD
Put plainly: MST; Monolith NT 115; GST-praja2 fragments labelled with NHS-ester dye, TBC1D31 peptides titrated (16-point 1:1 dilution); 25°C, 20 mM NaP, 200 mM NaCl, 1 mM DTT, 0.05% Tween-20, pH 7.4. Particulars: both partners purified.

In experiment [2] the target is T2, GST-praja2_(550–610) (human, UniProt O43164 550-610, fluorescent dye on primary amines (NHS-ester labelling)).
T2 construct: praja2 (PJA2), human, residues 550-610; The results call P1-P3 synthetic peptides; the methods describe recombinant GST fusions; also called P2; source: recombinant, purified (GST Trap, Superdex 75 gel filtration)
T2 sequence (looked up): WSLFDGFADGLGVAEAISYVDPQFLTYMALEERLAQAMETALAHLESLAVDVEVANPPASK
Described as above. Particulars: both partners purified.

Experiment [3] addresses T3, GST-praja2_(530–570) (human, UniProt O43164 530-570, fluorescent dye on primary amines (NHS-ester labelling)).
T3 chain: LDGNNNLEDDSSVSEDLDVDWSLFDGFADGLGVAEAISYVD
Put plainly: MST.

B1: peptide of the C-terminus segment of TBC1D31 (peptide)
peptide: WDTTGQNLIKKVRNLRQRLTARARHRCQTPHLLAA
notes: TBC1D31, human, C-terminus segment; also called WA35 TBC1D31; wild-type TBC1D31 peptide; source: synthetic peptide (bought: Shanghai Apeptide Co., Ltd)
Regarding B1, the results for the Kd in experiment [1] and in experiment [2] were 37 µM and 80 µM, respectively.

B2: double AA mutant TBC1D31 peptide (peptide)
peptide: WDTTGQNLIKKVANLAQRLTARARHRCQTPHLLAA
notes: TBC1D31, human, C-terminus segment peptide with R948A and R951A; also called TBC1D31AA; R948A-R951A; source: synthetic peptide (bought: Shanghai Apeptide Co., Ltd)
Molecule B2 came in with a Kd in experiment [3] of roughly 65 µM. Also, the binding result in experiment [1] is “binds”.

What is called Kd is the concentration at which binding is half-saturated. Low readings indicate a tighter complex, high ones a looser complex.
